From paper PMC4490337, “Revisiting the intraperoxisomal pathway of mammalian PEX7” (Scientific Reports, 2015)

B1: ΔC1PEX5L, recombinant protein comprising amino acid residues 1-324 of the large isoform of human PEX5 (domain or fragment)
chain: not shown
B2: radiolabeled pre-phytanoyl-CoA hydroxylase (35S-prePHYH) (natural protein, human, UniProt O14832 1-338, looked up)
chain: MEQLRAAARLQIVLGHLGRPSAGAVVAHPTSGTISSASFHPQQFQYTLDNNVLTLEQRKFYEENGFLVIKNLVPDADIQRFRNEFEKICRKEVKPLGLTVMRDVTISKSEYAPSEKMITKVQDFQEDKELFRYCTLPEILKYVECFTGPNIMAMHTMLINKPPDSGKKTSRHPLHQDLHYFPFRPSDLIVCAWTAMEHISRNNGCLVVLPGTHKGSLKPHDYPKWEGGVNKMFHGIQDYEENKARVHLVMEKGDTVFFHPLLIHGSGQNKTQGFRKAISCHFASADCHYIDVKGTSQENIEKEVVGIAHKFFGAENSVNLKDIWMFRARLVKGERTNL
modifications: [35S]methionine label
notes: human phytanoyl-CoA hydroxylase, precursor form with the PTS2 (prePHYH); cDNA amplified with primers from the start to the stop codon and cloned into pGEM4 (pGEM4-prePHYH); also called radiolabeled prePHYH; source: in vitro translated (TNT T7 quick coupled kit, rabbit reticulocyte lysate), not purified

What was measured:
[1] = biological target: T1, PEX7 (in vitro synthesized) (human, UniProt O00628 1-323, unlabeled in the native-PAGE analyses; [35S]methionine label in the import/export assays); test: cell-based or functional assay
T1 sequence (looked up): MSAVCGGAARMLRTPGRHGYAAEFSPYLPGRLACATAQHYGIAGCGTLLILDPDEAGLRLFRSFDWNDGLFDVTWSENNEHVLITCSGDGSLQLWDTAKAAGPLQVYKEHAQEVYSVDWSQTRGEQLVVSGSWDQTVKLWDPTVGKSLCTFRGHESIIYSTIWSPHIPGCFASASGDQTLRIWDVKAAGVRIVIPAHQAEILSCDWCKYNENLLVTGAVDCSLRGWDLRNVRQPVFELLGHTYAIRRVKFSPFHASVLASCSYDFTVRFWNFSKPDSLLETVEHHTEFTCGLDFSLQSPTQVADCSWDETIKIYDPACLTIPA

[2] = biological target: T1, PEX7 (in vitro synthesized); test: native gel or EMSA; chase of the pre-assembled trimeric ΔC1PEX5L-PEX7-35S-prePHYH complex with excess recombinant prePHYH (100 ng) at 23 °C, aliquots over 8 h; band intensity against time; settings: partners not purified

Binder	amount of 35S-labeled PEX7 exported from peroxisomes in 15 min after pre-incubation with ΔC1PEX5L, against pre-incubation with export-incompetent ΔC1PEX5L(C11A) [1] [fold]	half-life of prePHYH in the trimeric complex (with m3) [2] [h]
B1	~2	
B2		3.06
